Laboratory results: the nanobody polyreactivity screen of Harvey et al. (2022)

Experiment: yeast display, Sf9 membrane polyspecificity reagent, FACS + sequencing; frameworks hold sequencing errors
Outline: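 Sorting gates, low and high (top ~1%), were placed on anti-HA fluorescence to track expression and on streptavidin fluorescence to track reagent binding. A clone's polyreactivity label is taken from the gate it came out of. The reagent was 10% biotinylated, detergent-solubilized Sf9 membrane, applied for 1 hour at 4 °C to galactose-induced yeast display cells.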

## QVQLVESGGGLVQAGGSLRLSCAASGYIFGHYTMGWYRPAPGKEGELVAGITRGTRTYYADSVKGRFTISRDNAKNTVYLQMNSLKPEDTAVYYCAKRGPVRTQYTYYYWGQGTQVTVSS
  polyreactivity (PSR sort gate): high polyreactivity

## QVQLVESGGGLVQAGGSLRLRCAASGSTFSRYTMGWYRQAPGKERELVAAISKSGGSTYYADSVKGRFTISRDNAKNTVYLQMNSLKPEDTAVYYCAALVRAGTSLDFDYWGQGTQVTVSS
  polyreactivity (PSR sort gate): high polyreactivity

## QVQLVESGGGLVQAGGSLRLSCAASGYTFYVYTMGWYRQAPGKERELVAAISGSGTSTYYADSVKGRFTISRDNAKNTVYLQMNSLKPEDTAVYYCAAEDYSRDVYSYDYWGQGTQVTVSS
  polyreactivity (PSR sort gate): low polyreactivity

## QVQLVESGGGLVQAGGSLRLSCAASGFIFRRYAMGWYRQAPGKERELVAAITSSGTSTYYADSVKGRFTISRDNAKNTVYLQMNSLKPEDTAVYYCNAAQYYERFNHWGQGTQVTVSS
  polyreactivity (PSR sort gate): high polyreactivity

## QVQLVESGGGLVQAGGSLRISCAASGRIFNINAMGWYRPAPGKERELVAAITWRSGSTYYADSVKGRFTISRDNAKNTVYLHMNSLKPEDTAVYYCAADFSQTRRPIRFYYWGQGSQVTVSS
  polyreactivity (PSR sort gate): high polyreactivity

## QVQLVESGGGLVQAGGSLRLSCAASGRIITYNAMGWYRQAPGKERELVAAISTTGGRTYYADSVKGRFTISRDNAKNTVYLQMNSLKPEDTAVYYCNAVLKRPLAYHVTYDYWGQGTQVTVSS
  polyreactivity (PSR sort gate): high polyreactivity

## QVQIVESGGGLVQAGGSLRLSCAASGSIFFYYSMGWYRQAPGKERELVAAISVGGSTYYADSVKGRFTISRDNAKNTVYLQMNSLKPEDTAVYSFNAVPAKGYVTVVRYYYWGQGTQVTVSS
  polyreactivity (PSR sort gate): low polyreactivity

## QVQLVESGGGLVQAGGSLRLSCAASGSTIFSYAMGWYRQAPGKERELVAAITYRSSRTYYADSVKGRFTISRDNAKNTVYLQMNSLKPEDTAVYYCAAGYFSYRRYDYWGQGTQVTVSS
  polyreactivity (PSR sort gate): high polyreactivity

## QVQLVESGGGLVQAGGSLRLSCAASGFTFFVYAMGWYRKAPGKERELVATINWSGASTYYADSVKGRFTISRDNAKNTVYLQMNSLKPEDTAVYYCDKDGHYPLVYLAFDYWGQGTQVTVSS
  polyreactivity (PSR sort gate): low polyreactivity

## QVQLVESGGGLVQAGGSLSLSCAASGSIFRHNVMGWYIPAPGKERELVAAISGGGGRTYYADSVKGRFTISRDNAKNTDYLQMKSLKPEDTAVYYCYAYVGLSEGDYWGQGTHVTVSS
  polyreactivity (PSR sort gate): high polyreactivity

## QVQLVESGGGLVQAGGSLRLSCAASGFTFHNYAMGWYRQAPGKERDFVAAITRNTASTYYADSVKGRFTISRDNAKNTVYLQMNSLKPEDTAVYYCNASRVVYRQAYLYGYDYWGQGTQVTVSS
  polyreactivity (PSR sort gate): low polyreactivity

## QVQLVESGGGLVQAGGILSLSCADSGRIFDIYAMGWYRQAPGKERELVASISWSGDSTYYADSVKGRFTISRDNAKNTVYLQMNSLKPEDTAVYYCDAVGEDTEGYDFDYWGQGTQVTVSS
  polyreactivity (PSR sort gate): low polyreactivity

## QVQLVESGGGLVQAGGSLRLSCAASGITFEKYAMGGYRQAPGKERELVAAITSSGGSTYYADSVKGRFTISRDNAKNTVYLQMNSLKPEDTAVYYCKARYYYADRTSGGYYYWGQGTQVTVSS
  polyreactivity (PSR sort gate): high polyreactivity

## QVQLVESGGGLVQAGGSLRLSCAAYGLTFYHYTMGWYRQAPGKERELVAAISSSGVTTYYADSVKGRFTISRDNAKNTVYLQMNSLKPEDTAVYYCAAVWYPDRVQPENGTTDSPGDYWGQGTQVTVSS
  polyreactivity (PSR sort gate): low polyreactivity

## QVQLVESGGGLVQAGGSLRLSCAASGSTFFSYAMGWYRQAPGTERELVAAITRSGGSTYYADSVKGRFTISRDNAKNTVYLQMNSLKPEDTAVYYCAPRRYEPKAVYYWGQGTQVTVSS
  polyreactivity (PSR sort gate): high polyreactivity

## QVQLVESGGGLVQAGGSLRLSCAASGFISARYAMGWYRQAPGKERELVAGISGGGGRTYYADSVKGRFTISRDNAKNTVYLQMNSLKPEDTAVYYCASTQQSRDRRFNYWGQGTQVTVSS
  polyreactivity (PSR sort gate): high polyreactivity

## QVQLVESGGGLVQAGGSLRLSCAASGLTLGSYALGWYRQAPGKERELVAAISRRSGRTYYADSVKGRFTISRDNAKNTVYLQMNSLKPEDTAVYYCNRGYTAQVYTEFDYWGQGTQVTVSS
  polyreactivity (PSR sort gate): low polyreactivity

## QVHLVESGGGLDQAGGSLRLRCAATGRTFKYYAMGWYRQAPGKERELVAAISGSGGSTYYADSVKGRFTISRDNAKNTVYLQMNSLKPEDTAVYYCAAAGKETSRYAYDSWGQGTQVTVSS
  polyreactivity (PSR sort gate): high polyreactivity

## QVQLVESGGGLVQAGGSLRLTCPASGTIFWNYAMGWYRQAPGKERELVAAISFSGGSTYYADSVKGRFTISRDNAKNTVYLQMNSLKPEDTAVYYCNADYSYVGEYDYWGQGTQVTLSS
  polyreactivity (PSR sort gate): low polyreactivity

## QVQLVESGVGLVQAGGSLRLSCAASGRIFGYYTMGWYRQAPGKERELVADSSGGNTSYADSVKGRFTISRDNAKNTVYLQMNSLKPEDTAGYYCAKDLPGAWRGDDYWGQGTQVTVSS
  polyreactivity (PSR sort gate): low polyreactivity

## QVQLVESGGGIVQAGGSLRLSCAASGRIFSFNTMVSYRQAPRKERELVAAITSSSARTYYADSVKGRFTISRDNAKNTVYLQMNSLKPEDTAVYYCATRDWVGSVRMGYWGQGTQVTVSS
  polyreactivity (PSR sort gate): high polyreactivity

## QVQLVESGGGLVQAGGSLRLSCAASVRIFRFYVMGWYRQAPGKERELVAAISKRGASTSYADSVKGRFTISRDNAKNTVYLQMNSLKPEDTAVYYCAASAKRGEMGYWGQGTQVTVSS
  polyreactivity (PSR sort gate): high polyreactivity

## QVQLVESGGGLVQAGGSLRLSCAASGRIFYSNAMGWYRQAPGKERELVAAISGSTDSTYYADSVKGRFTISRDNAKNTVYLQMNSLKPEDTAVYYCAAADYWFYYGYYLTMDYWGQGTQVTVSS
  polyreactivity (PSR sort gate): low polyreactivity

## QVQHVESGGGLVQAGGSLRLSCAASGFTFKRNAMGWYRPAPGKERELVAAITWSGGSTYYADSVKGRFTISRDNAKNTVYLQMNSLKPEDTEVYYCAALYRSRYYSGDYWGQGTQVTVSS
  polyreactivity (PSR sort gate): high polyreactivity

## QVQLVESGGGLVQAGGSLRLSCAASGRIFSKYAMGWYRQAPGKERELVAAITYSGGSTYYADSVKGRFTISRDNAKNTVYLQMNSLKPEDTAVYYCAAVHGTSYSKWFGYWGQGTQVTVSS
  polyreactivity (PSR sort gate): low polyreactivity

## QVQLVESGGGLVQAGGSLRLSCAASGIIFSWYSMGWYIEAPGKERELVAAISWSGGRTYYSDSVKGRFTISRDNAKNNVYLQMNSLKPEDTAVYYCAAERNRYSHWEARYYWGQGTQVTVSS
  polyreactivity (PSR sort gate): high polyreactivity

## QVQLLESGGGLVQAGGSLRLSCAASGRIYLYAMGWYRQTPGKERELVAAISYSGGSTYYADSVKGRFTISRDNAKNTVYLQMNSLKPEDTAVYYCAAEAGSYWRWFWYDSWGQGTQVTVSS
  polyreactivity (PSR sort gate): high polyreactivity

## QDQLVESCGGLVQAGGSLRLSCAASGHIFIYYAMGWYRQAPWKERELVAVISGSGGRTYYADSVKGRFTISRDYAKNTVSLQMNSLKPEDTAVYYCAAAVRYYPHYDSWGQGTQVNVSS
  polyreactivity (PSR sort gate): low polyreactivity

## QVQLVESGGGLVQAGVSLRLSCAASGRTLRRTAMGWYRQAPGTERELVAAISSIGGSTYYADSVKGRFTISRDNAKITVYLQMNSLKPEDTAVYYCAADILIYPYSYDYYWGQGTQVTVSS
  polyreactivity (PSR sort gate): high polyreactivity

## QVQLVESGGGLVQAGGSLRLSCAASGSTHVYAMGWYRQAPGKERELVAAISLNTGSTYYADSVKGRFTISRDNAKNTVYLQMNSLKPEDTAVYRLNYWGQGTQVTVSS
  polyreactivity (PSR sort gate): low polyreactivity

## QVQLVESGGGLVQAGGSLRLSCAASGSTFSGYAMGWYRQAPGKERELVAAITRSGGSTYYADSVKGRFTISRDNAKNTVYLQMNSLKPEDTAVYYCNVYFGYWVPTSTYYWSWDDYWGQGTQVTVSS
  polyreactivity (PSR sort gate): low polyreactivity

## QVHLVESGGGLVQAGGSLRLSCAASGRTFTGYAMGWYRQAPGKEREFVAAISSGGVRTYYADSVKGRFTISRDNAKNTVYLQMNSLKPEDTAVYYCNARQVYYRGTFRYSYDYWGQGTQVTVSS
  polyreactivity (PSR sort gate): high polyreactivity

## QVQLVESGGGLVQAGGSLRLSCAASGSTFLGYVMGWYRQAPGKEREFVAAITWSVGSTYYADSVKGRFTISRDNAKNTVYLQMNSLKPEDTAVYYCAVRWVYANIYPDMEYWGQGTKVTVSS
  polyreactivity (PSR sort gate): low polyreactivity

## QVQLVESGGGLVQAGGSLRLSCAASGRIFRRYAMGWYRQAPGKERELVAAISTSGGSTYYADSVKGRFTISRDNAKNTVYLQMNSLKPEDTAVYYCNVYKPPTRGGVLQYGYWGQGTQVTVSS
  polyreactivity (PSR sort gate): low polyreactivity

## QVQLVESGGGLVQAGGSLRLSCAASGFTFYLYSMGWYRQAPGKERELVATITSDGGTNYADSVKGRFSISRDNAKNTVYLQMNSLTPEDTAVYYCNAASRRGSRKQAKYDYWGQGTQVTVSA
  polyreactivity (PSR sort gate): low polyreactivity

## QVQLVESGGGLVQAGGSLRLSCAASGSIFRGNAMGWYRQAPGKERELVARITWSGGRTYYADSVKGRFTISRDNAKNTVYLQLNSLKPEDTAVYYCAAQYYLYRRGYMWKYDYWGQGTQVTVSS
  polyreactivity (PSR sort gate): high polyreactivity

## QVQLVESGGGLVQAGGSLRLSCAASGRIFGSYTMGWYRQAPGKERELVAAISFSGARTRYADSVKGRFTISRDNAKNTVYLQMNSLKPEDTAVYYCAARFTGGKYDYWGQGTQVTVSS
  polyreactivity (PSR sort gate): high polyreactivity

## QVQLVESGGGLVQAGGSLRLSCAASGRTFGLYAMGWYRQAPGKERELVAAISSGDSTNYADSVKGRFTISRDNAKNTVYLQMNSLKPEDTAVYYCAAAQQRWWQWYYYWGQGTQVTVSS
  polyreactivity (PSR sort gate): high polyreactivity

## QVQLVESGGGLVQAGGSLRLSCAASGSTFYDYAMGWYRQAPGKERELVAAMSSSGARTYYADSVKGRFTISRDNAKNSVYLQMNSLKPEDTAVYYCGAKPHTRTTCPSGYWGQATQVTVSS
  polyreactivity (PSR sort gate): high polyreactivity

## QVQLVESGGGLVQAGGSLRLSCAASGGIFVPNDMGWYRQAPGKERELVAAIRDGGSTNYADSVKGRFTISRDNAKNTVYLQMNSLKPEDTAVYYCAADYSLALAKYDYWGQGTQVTVSS
  polyreactivity (PSR sort gate): low polyreactivity

## QVQLVDSGGGLVQAGGSLRLSCDASGSTFRGTVMGWYRQAPGKERELVAGIYSGGSTYYADSVKGRFTISRDNAKNTVYLQMNSLKPEDTAVYYCAAYRRQHIIYNDWGQGTQVTVSS
  polyreactivity (PSR sort gate): high polyreactivity

## QVQLVESGGGLVQAGGSLRLSCAASGNIFDRNAMGWYRHAPGKESELVAAISRSGGRTYYADSVKGRFTISRDNAKNTVYLQMNSLKPEDTAVYYCNRRYRNYSSAKYDYWGQGTQVTVSS
  polyreactivity (PSR sort gate): high polyreactivity

## QVQLVESGGGLVQAGGSLRLSCAASGRTFYYYAMGWYRQAPGKERELVARIRSGGSTNYADSVKGRFTISRDNAKNTVYLQMNSLKPEDTAVYYCNSMGAKGYVKGFDYWGQGTQVTVSS
  polyreactivity (PSR sort gate): low polyreactivity
